Test results as given in patent US20230220589A1.
Values belong to the binder of their own block, whether it stands above or below them.

Tests used:
[1] = biological target: M17-modified W NTAA target peptides; assay: encoding assay; P2 W;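 also: fraction of recording tags encoded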
[2] = biological target: M17-modified Y NTAA target peptides (M17-Y-P2-peptide); assay: encoding assay; P2 W;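 also: fraction of recording tags encoded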
[3] = biological target: M17-modified M NTAA target peptides; assay: encoding assay; P2 W;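 also: fraction of recording tags encoded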
[4] = biological target: M17-modified I NTAA target peptides; assay: encoding assay; P2 W;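 also: fraction of recording tags encoded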
[5] = biological target: M17-modified H NTAA target peptides; assay: encoding assay; P2 W;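 also: fraction of recording tags encoded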
[6] = biological target: M17-modified Q NTAA target peptides; assay: encoding assay; P2 W;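 also: fraction of recording tags encoded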
[7] = biological target: M17-modified G NTAA target peptides; assay: encoding assay; P2 W;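 also: fraction of recording tags encoded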
[8] = biological target: M17-modified A NTAA target peptides; assay: encoding assay; P2 W;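 also: fraction of recording tags encoded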
[9] = biological target: M17-modified S NTAA target peptides; assay: encoding assay; P2 W;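 also: fraction of recording tags encoded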
[10] = biological target: M17-modified V NTAA target peptides; assay: encoding assay; P2 W;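 also: fraction of recording tags encoded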
[11] = biological target: M17-modified L NTAA target peptides; assay: encoding assay; P2 W;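 also: fraction of recording tags encoded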
[12] = biological target: M17-modified T NTAA target peptides; assay: encoding assay; P2 W;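 also: fraction of recording tags encoded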
[13] = biological target: M17-modified F NTAA target peptides; assay: encoding assay; P2 W;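 also: fraction of recording tags encoded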
[14] = biological target: M17-modified N NTAA target peptides; assay: encoding assay; P2 W;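 also: fraction of recording tags encoded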
[15] = biological target: M17-modified E NTAA target peptides; assay: encoding assay; P2 W;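 also: fraction of recording tags encoded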
[16] = biological target: M17-modified D NTAA target peptides; assay: encoding assay; P2 W;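 also: fraction of recording tags encoded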
[17] = biological target: M17-modified P NTAA target peptides; assay: encoding assay; P2 W;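 also: fraction of recording tags encoded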
[18] = biological target: M17-modified W NTAA target peptides; assay: encoding assay; P2 A;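 also: fraction of recording tags encoded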
[19] = biological target: M17-modified Y NTAA target peptides (M17-Y-P2-peptide); assay: encoding assay; P2 A;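 also: fraction of recording tags encoded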
[20] = biological target: M17-modified M NTAA target peptides; assay: encoding assay; P2 A;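 also: fraction of recording tags encoded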
[21] = biological target: M17-modified I NTAA target peptides; assay: encoding assay; P2 A;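 also: fraction of recording tags encoded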
[22] = biological target: M17-modified H NTAA target peptides; assay: encoding assay; P2 A;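 also: fraction of recording tags encoded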
[23] = biological target: M17-modified Q NTAA target peptides; assay: encoding assay; P2 A;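 also: fraction of recording tags encoded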
[24] = biological target: M17-modified G NTAA target peptides; assay: encoding assay; P2 A;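 also: fraction of recording tags encoded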
[25] = biological target: M17-modified A NTAA target peptides; assay: encoding assay; P2 A;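 also: fraction of recording tags encoded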
[26] = biological target: M17-modified V NTAA target peptides; assay: encoding assay; P2 A;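 also: fraction of recording tags encoded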
[27] = biological target: M17-modified L NTAA target peptides; assay: encoding assay; P2 A;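 also: fraction of recording tags encoded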
[28] = biological target: M17-modified T NTAA target peptides; assay: encoding assay; P2 A;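 also: fraction of recording tags encoded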
[29] = biological target: M17-modified F NTAA target peptides; assay: encoding assay; P2 A;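 also: fraction of recording tags encoded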
[30] = biological target: M17-modified N NTAA target peptides; assay: encoding assay; P2 A;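 also: fraction of recording tags encoded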
[31] = biological target: M17-modified E NTAA target peptides; assay: encoding assay; P2 A;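 also: fraction of recording tags encoded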
[32] = biological target: M17-modified D NTAA target peptides; assay: encoding assay; P2 A;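 also: fraction of recording tags encoded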
[33] = biological target: M17-modified P NTAA target peptides; assay: encoding assay; P2 A;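 also: fraction of recording tags encoded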
[34] = biological target: M17-modified I NTAA target peptides; assay: encoding assay; P2 I;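 also: fraction of recording tags encoded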
[35] = biological target: M17-modified H NTAA target peptides; assay: encoding assay; P2 I;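 also: fraction of recording tags encoded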
[36] = biological target: M17-modified A NTAA target peptides; assay: encoding assay; P2 I;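 also: fraction of recording tags encoded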
[37] = biological target: M17-modified V NTAA target peptides; assay: encoding assay; P2 I;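 also: fraction of recording tags encoded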
[38] = biological target: M17-modified N NTAA target peptides; assay: encoding assay; P2 I;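 also: fraction of recording tags encoded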
[39] = biological target: M17-modified E NTAA target peptides; assay: encoding assay; P2 I;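 also: fraction of recording tags encoded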
[40] = biological target: M17-modified D NTAA target peptides; assay: encoding assay; P2 I;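 also: fraction of recording tags encoded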
[41] = biological target: M17-modified Y NTAA target peptides (M17-Y-P2-peptide); assay: Gini coefficient of P2 tolerance from multiplex encoding heatmap
[42] = biological target: M17-modified M NTAA target peptides; assay: encoding assay; P2 Q;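 also: fraction of recording tags encoded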
[43] = biological target: M17-modified W NTAA target peptides; assay: encoding assay; P2 G;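 also: fraction of recording tags encoded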
[44] = biological target: M17-modified W NTAA target peptides; assay: encoding assay; P2 S;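 also: fraction of recording tags encoded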
[45] = biological target: M44-modified E NTAA target peptides; assay: encoding assay; P2 W;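 also: fraction of recording tags encoded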
[46] = biological target: M44-modified P NTAA target peptides; assay: encoding assay; P2 A;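 also: fraction of recording tags encoded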
[47] = biological target: M44-modified E NTAA target peptides; assay: encoding assay; P2 A;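 also: fraction of recording tags encoded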
[48] = biological target: M44-modified D NTAA target peptides; assay: encoding assay; P2 A;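 also: fraction of recording tags encoded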
[49] = biological target: M44-modified T NTAA target peptides; assay: encoding assay; P2 A;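 also: fraction of recording tags encoded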
[50] = biological target: M44-modified S NTAA target peptides; assay: encoding assay; P2 A
[51] = biological target: M44-modified P NTAA target peptides; assay: encoding assay; P2 I;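 also: fraction of recording tags encoded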
[52] = biological target: M44-modified A NTAA target peptides (M44-A-P2-peptide); assay: Gini coefficient of P1 selectivity from multiplex encoding heatmap
[53] = biological target: M44-modified G NTAA target peptides (M44-G-P2-peptide); assay: encoding assay; P2 G;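 also: fraction of recording tags encoded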
[54] = biological target: M44-modified L NTAA target peptides (M44-L-P2-peptide); assay: Gini coefficient of P2 tolerance from multiplex encoding heatmap

B1: engineered M17-Y binder (SEQ ID NO: 61) (designed binder, not shown: small tags and cut ends; large carriers)
chain: TVPDRSEIAGKWYVVALASNTEFYLREKDWVKSAMARISFLGEDELKVSSAVPSPNGCYKVERTWKKTSDDGEVYNSRAAKLKVEVLDTDYKSYAVIYATRVKDGRTDHQMILYSRSPEVSPAATAIFRKLAGERNYTDEMVAMLPRQEECTVDEV
- encoding yield [1]: 0.04
- encoding yield [2]: 0.12
- encoding yield [3]: 0.02
- encoding yield [4]: 0.11
- encoding yield [5]: 0.02
- encoding yield [6]: 0.02
- encoding yield [7]: 0.01
- encoding yield [8]: 0.02
- encoding yield [9]: 0.02
- encoding yield [10]: 0.05
- encoding yield [11]: 0.03
- encoding yield [12]: 0.01
- encoding yield [13]: 0.14
- encoding yield [14]: 0.02
- encoding yield [15]: 0.01
- encoding yield [16]: 0.02
- encoding yield [17]: 0.03
- encoding yield [18]: 0.04
- encoding yield [19]: 0.12
- encoding yield [20]: 0.02
- encoding yield [21]: 0.02
- encoding yield [22]: 0.02
- encoding yield [23]: 0.02
- encoding yield [24]: 0.02
- encoding yield [25]: 0.02
- encoding yield [26]: 0.01
- encoding yield [27]: 0.02
- encoding yield [28]: 0.01
- encoding yield [29]: 0.04
- encoding yield [30]: 0.02
- encoding yield [31]: 0.01
- encoding yield [32]: 0.01
- encoding yield [33]: 0.01
- encoding yield [34]: 0.05
- encoding yield [35]: 0.04
- encoding yield [36]: 0.02
- encoding yield [37]: 0.03
- encoding yield [38]: 0.03
- encoding yield [39]: 0.03
- encoding yield [40]: 0.02
- P2 score [41]: 0.225

B4: engineered M44-L binder (SEQ ID NO: 21) (designed binder, not shown: small tags and cut ends; large carriers)
chain: QVSVQPNFQQDKFLGRWFYAGHASNSSWYREKVAALSMAKLVVAPATDGGLNATETFLRKNQCETITSLLQPAGSLGSYSSRSPHGGSTWSTSVVETDYDQYALLYLQGSKGPGEDFRGAILASRTQTPRAELKEKFTAFSKAQGFTEDTIVFLPQTDKCMTEQ
- P2 score [54]: 0.408

Further lines, with some results ahead:

- encoding yield [1]: 0.1
- encoding yield [2]: 0.19
- encoding yield [3]: 0.04
- encoding yield [4]: 0.14
- encoding yield [5]: 0.04
- encoding yield [6]: 0.03
- encoding yield [7]: 0.02
- encoding yield [8]: 0.04
- encoding yield [9]: 0.06
- encoding yield [10]: 0.07
- encoding yield [11]: 0.03
- encoding yield [12]: 0.03
- encoding yield [13]: 0.18
- encoding yield [14]: 0.04
- encoding yield [15]: 0.01
- encoding yield [16]: 0.04
- encoding yield [17]: 0.03
- encoding yield [42]: 0.01
- encoding yield [18]: 0.08
- encoding yield [19]: 0.24
- encoding yield [20]: 0.03
- encoding yield [21]: 0.03
- encoding yield [22]: 0.02
- encoding yield [23]: 0.02
- encoding yield [24]: 0.03
- encoding yield [25]: 0.02
- encoding yield [26]: 0.02
- encoding yield [27]: 0.04
- encoding yield [28]: 0.01
- encoding yield [29]: 0.09
- encoding yield [30]: 0.03
- encoding yield [31]: 0.02
- encoding yield [32]: 0.02
- encoding yield [33]: 0.01
- encoding yield [34]: 0.08
- encoding yield [35]: 0.04
- encoding yield [36]: 0.03
- encoding yield [37]: 0.05
- encoding yield [38]: 0.03
- encoding yield [39]: 0.03
- encoding yield [40]: 0.02
- encoding yield [43]: 0.04
- encoding yield [44]: 0.03
B2: upgraded binder after additional maturation round (SEQ ID NO: 62) (designed binder, not shown: small tags and cut ends; large carriers)
chain: TVPDRSEIAGKWYVVALASNTEFYLRGKDRVKSAMVRISFQGEDELKVSSAVPSPNGCYKVERTWKKTSDDGEVYNSRAAKLKVEVLDTDYKSYAVIYATRVKDRRTDHQMILYSRSPDVSPAATAIFRKLAGERNYTDEMVAMLPRQEECTVDEV
- P2 score [41]: 0.128

- encoding yield [45]: 0.02
- encoding yield [46]: 0.01
- encoding yield [47]: 0.02
- encoding yield [48]: 0.02
- encoding yield [49]: 0.01
- encoding yield [50]: 0.01
- encoding yield [51]: 0.01
- P1 score [52]: 0.31
- encoding yield [53]: 0.01
B3: engineered M44-A binder (SEQ ID NO: 42) (designed binder, not shown: small tags and cut ends; large carriers)
chain: QVSVQPNFQQDKFLGRWFVAGLASNSSWDREKVAALSGAKMVVAPATDGGLNVTRTMLRKNQCETYTGLLQPAGSLGSYSWRSPHPGSTGSESVVETDYDQYALVYGQGSKGPGEDLRAAALWSRTQTPRAELKEKFTAFSKAQGFTEDTIVFLPQTDKCMTEQ

- encoding yield [45]: 0.01
- encoding yield [46]: 0.01
- encoding yield [47]: 0.02
- encoding yield [48]: 0.02
- encoding yield [49]: 0.01
- encoding yield [50]: 0.01
- encoding yield [51]: 0.01
B5: engineered M44-L binder (SEQ ID NO: 31) (designed binder, not shown: small tags and cut ends; large carriers)
chain: QDSTQNLIPAPPLISVPLQPGFWTERFQGRWFLVGFAGNAVQKERQSRLTMQSLILELQEDNSYNITAINVRGQGCRYIISTLVPSSRPGQFTLGNIHSYPQIQSLDVQVADTDYDQFAMVFLQGTSENKQYFEVALAGRTKGLSDELKERFVSFAKSLGLKDNNIVFSVPTDQCIDN
- P2 score [54]: 0.331
